5 molecules from patent publication US9034341B2, “Control of RAGE fusion protein glycosylation and RAGE fusion protein compositions” (TransTech Pharma, LLC, priority 2009, dated 2015) can be followed below.

The target in one test is T1, S100b (Bos taurus, UniProt P02638).
T1 construct: purchased Calbiochem 559290
T1 sequence (P02638 1-92): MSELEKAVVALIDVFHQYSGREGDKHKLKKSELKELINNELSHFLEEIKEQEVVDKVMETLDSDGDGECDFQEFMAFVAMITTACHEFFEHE
Description: S100b binding ELISA. Conditions: for Relative binding compared to control: binding to S100b relative to S1 control (untreated sRAGE-Ig). On the procedure: Peak fraction collection for S100b binding assay: sRAGE-Ig fusion protein samples were concentrated to 4.0 mg/mL using a 10K Amicon Ultra filtration column (Millipore, Bedford, Mass.) and then separated under the reversed-phase conditions for glycan site occupancy as described above. Three fractions representing the site occupancy variants of sRAGE-Ig were collected as triply glycosylated (fraction one, F1), doubly glycosylated (fraction two, F2), and aglycosylated (fraction three, F3). The collected samples were concentrated and exchanged into a stabilizing buffer. Protein concentration of the fraction samples was determined by 280 nm absorbance with a DU 650 spectrophotometer (Beckman Coulter, Fullerton, Calif.) before subjecting the protein to the S100b ELISA binding assay.
(§1) S100b binding ELISA: An ELISA assay plate was coated with 100 μL/well of 20 μg/mL S100b protein (Cat. No. 559290, Calbiochem, Gibbstown, N.J.) in coating buffer (Tris buffered saline [TBS], pH8.0, with 5 mM CaCl2) overnight at 4° C. The plate was then washed three times with blocking buffer (TBS pH8.0, with 5 mM CaCl2, 0.05% Tween20, and 1% bovine serum albumin [BSA]), and blocked with the blocking buffer for 1-1.5 hr. sRAGE-Ig fusion samples were prepared in a separate dilution plate, the highest concentration was 10 μg/mL in blocking buffer, with 1:4 serial dilution in blocking buffer down to 2.4 ng/mL. After blocking, the assay plate was washed with the blocking buffer and 100 μL of the samples were transferred from the dilution plate to the assay plate. The assay plate was incubated at room temperature for 2.5 hr. The assay plate was then washed three times with the blocking buffer, with 1 min soaking time between the washes. The horseradish peroxidase conjugated goat anti-human IgG (Cat. No. A2290, Sigma, St. Louis, Mo.) was added to the plate with 100 μL/well at 1:2500 dilution in the blocking buffer. The plate was incubated for 1 hr at room temperature. The assay plate was then washed three times with the blocking buffer again, and 100 μL 3,3′,5,5′-tetramethylbenzidine (TMB; Cat. No. 34022, Pierce, Rockford, Ill.) was added to each well and the plate was incubated for 8 minutes at room temperature. 100 μL of 1M H2SO4 was then added to each well, the plate was shaken and read at 450 nm on a microplate reader.
A general note: An ELISA detects its analyte on a solid surface through an enzyme-linked reagent.

In test [1] the test system is human Aβ peptides (Aβ1-40, Aβ1-28). Description: Aβ peptide binding ELISA. Conditions: for Relative binding compared to control: binding to Abeta relative to S1 control. On the procedure: as §1
Chain of human Aβ peptides (Aβ1-40, Aβ1-28) (P05067 672-699 limits assumed): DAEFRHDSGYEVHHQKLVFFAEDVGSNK
Assay for Aβ peptide binding activities: Briefly, two human Aβ peptides were tested: Aβ1-40 (Catalogue# A-1153-2, Rpeptide), and Aβ1-28 (Catalogue#24232, AnaSpec). The plates were coated by 20 μg/mL peptide in 1% NH4OH overnight at 4° C. The plate was then washed with blocking buffer (TBS pH8.0, 0.05% Tween20, and 1% BSA) and blocked for 1 hr at room temperature. All the other steps were performed essentially as described previously herein for S100b binding assay, supra.

The mark [2] stands for this setting: versus unfractionated untreated S1.

B1: S1F2: sRAGE-Ig fraction from untreated cells, 2-glycan occupancy (protein)
chain: QNITARIGEPLVLKCKGAPKKPPQRLEWKLNTGRTEAWKVLSPQGGGPWDSVARVLPNGSLFLPAVGIQDEGIFRCQAMNRNGKETKSNYRVRVYQIPGKPEIVDSASELTAGVPNKVGTCVSEGSYPAGTLSWHLDGKPLVPNEKGVSVKEQTRRHPETGLFTLQSELMVTPAPGGDPRPTFSCSFSPGLPRHRALRTAPIQPRVWEPVPLEEVQLVVEPEGGAVAPPSVFLFPPKPKDTLMISRTPEVTCVVVDVSHEDPEVKFNWYVDGVEVHNAKTKPREEQYNSTYRVVSVLTVLHQDWLNGKEYKCKVSNKALPAPIEKTISKAKGQPREPQVYTLPPSRDELTKNQVSLTCLVKGFYPSDIAVEWESNGQPENNYKTTPPVLDSDGPFFLYSKLTVDKSRWQQGNVFSCSVMHEALHNHYTQKSLSLSPGK
For the molecule B1, the “Relative binding compared to control” value turned out to be 173% with S100b and 170% in test [1].

B2: S1F1: sRAGE-Ig fraction from untreated cells, 3-glycan occupancy (protein)
chain: B1 chain
On to B2, for which the “Relative binding compared to control” value with S100b was found to be 46%; in test [1], 102%.

B3: S2F3: sRAGE-Ig fraction from TMYCN treated cells, 0-glycan occupancy (aglycosylated variant) (protein)
chain: B1 chain
modifications: non-natural residues
Turning to B3, in the test with S100b (versus S1F1), the “fold increase in binding to S100b compared to fully occupied 3-glycan version” value is listed as “ten-fold”. Moreover, the “fold increase in binding to S100b compared to S1 control” value in the test with S100b (setting [2]) was “five-fold”. In addition, the “fold increase in binding to Abeta compared to fully occupied 3-glycan version” value in test [1] (versus S2F1) is “six-fold”. For the same molecule, in test [1] (setting [2]), the “fold increase in binding to Abeta compared to S1 control” value was “three-fold”.

B4: S2F2: sRAGE-Ig fraction from TMYCN treated cells, 2-glycan occupancy (protein)
chain: B1 chain
As to B4, the entries for the “Relative binding compared to control” value (with S100b; in test [1]) were 180% and 238%, respectively.

B5: S2F1: sRAGE-Ig fraction from TMYCN treated cells, 3-glycan occupancy (protein)
chain: B1 chain
For B5, the figures for the “Relative binding compared to control” value (in the test with S100b; in test [1]) were 20% and 49%, respectively.
